# Assay results published in article PMC4394230.
# Columns and labels:
# [1] = molecular target: rhTRAIL-C3 (TRAIL G131R/N199R/K201H mutant) (human) (UniProt P50591); test: SEC
# [2] = molecular target: DR4-Ig (death receptor 4 / TRAIL-R1, Ig fusion protein) (UniProt O00220)
# [3] = molecular target: DR4-Ig (death receptor 4 / TRAIL-R1, Ig fusion protein) (UniProt O00220); remark: listed apart in the source
# Chain of UniProt O00220 (O00220 24-239): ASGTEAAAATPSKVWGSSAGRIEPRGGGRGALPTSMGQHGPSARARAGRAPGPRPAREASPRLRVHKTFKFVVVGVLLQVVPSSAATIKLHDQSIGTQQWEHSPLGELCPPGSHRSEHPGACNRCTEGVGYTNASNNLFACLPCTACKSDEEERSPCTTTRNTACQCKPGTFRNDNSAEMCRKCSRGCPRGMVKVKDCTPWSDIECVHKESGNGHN
substance,measurement,setting,value
rhTRAIL-C3 (TRAIL G131R/N199R/K201H mutant) (from UniProt P50591 1-281) (ligand),stoichiometry N,[1],3
same,"ED50 of apoptosis induction (annexin V) in DR4-responsive EM-2 cells, 24 hrs",[2],3.78 ng/mL
same,"level of cell death in HL-60 cells (100 ng/ml, TMRE, 12 hrs)",[3],67%
